Source: patent publication US6987169

Biological target: hIK1 intermediate conductance, calcium-activated potassium channel (human) (UniProt O15554)
Assay: cell-based or functional assay

hIK1 intermediate conductance, calcium-activated potassium channel (human), sequence (O15554 other isoform, or with tags, fused parts or gaps): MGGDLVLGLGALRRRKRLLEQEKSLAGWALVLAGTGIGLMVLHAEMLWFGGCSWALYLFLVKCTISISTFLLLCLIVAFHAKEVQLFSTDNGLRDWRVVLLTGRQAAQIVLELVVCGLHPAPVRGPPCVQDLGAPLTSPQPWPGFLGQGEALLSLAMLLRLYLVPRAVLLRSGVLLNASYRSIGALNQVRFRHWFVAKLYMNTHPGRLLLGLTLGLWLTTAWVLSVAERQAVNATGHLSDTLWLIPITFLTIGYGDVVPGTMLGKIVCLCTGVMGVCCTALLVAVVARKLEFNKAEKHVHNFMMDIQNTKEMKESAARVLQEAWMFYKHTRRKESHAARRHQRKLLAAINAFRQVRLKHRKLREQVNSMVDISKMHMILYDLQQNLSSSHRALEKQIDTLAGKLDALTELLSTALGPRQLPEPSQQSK
iberiotoxin, sequence (P24663 whole entry): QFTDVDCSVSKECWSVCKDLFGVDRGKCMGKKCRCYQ

Substance: iberiotoxin (from UniProt P24663 1-37) (peptide)
- percent block of hIK1 currents at 50 nM: 15%
